# Laboratory results: article PMC7356578, “Heparin Blocks the Inhibition of Tissue Kallikrein 1 by Kallistatin through Electrostatic Repulsion” (Biomolecules, 2020)
# Where a chain is given by its changes, count along the chain named.
# B1: Recombinant human tissue kallikrein 1 (KLK1), wild type (enzyme)
# chain: not shown
# notes: tissue kallikrein 1 (KLK1), human, residues 25-262; Vector pE-SUMO3; also called kallikrein-related peptidase 1
# B2: Recombinant human kallistatin (rKAL), wild type (natural protein, UniProt P29622 45-427, looked up)
# chain: GSPSLKIAPANADFAFRFYYLIASETPGKNIFFSPLSISAAYAMLSLGACSHSRSQILEGLGFNLTELSESDVHRGFQHLLHTLNLPGHGLETRVGSALFLSHNLKFLAKFLNDTMAVYEAKLFHTNFYDTVGTIQLINDHVKKETRGKIVDLVSELKKDVLMVLVNYIYFKALWEKPFISSRTTPKDFYVDENTTVRVPMMLQDQEHHWYLHDRYLPCSVLRMDYKGDATVFFILPNQGKMREIEEVLTPEMLMRWNNLLRKRNFYKKLELHLPKFSISGSYVLDQILPRLGFTDLFSKWADLSGITKQQKLEASKSFHKATLDVDEAGTEAAAATSFAIKFFSAQTNRHILRFNRPFLVVIFSTSTQSVLFLGKVVDPTKP
# notes: kallistatin (SERPINA4), human, residues 45-427; Vector pE-SUMO3; purified on a HisTrap column, so the SUMO3 fusion probably carries a His tag that leaves with SUMO3; During storage or crystallisation part of the protein is cleaved between F387 and F388 (P2-P1) by an unknown protease; the crystal structures hold this cleaved form; also called rKAL-WT; SERPINA4; source: E. coli BL21 (DE3), purified …
# B3: rKAL-307/308D (natural protein, human, UniProt P29622 45-427, looked up)
# chain: B2 chain with K263D, R264D
# notes: kallistatin (SERPINA4), human, residues 45-427; double mutant of K307 and R308 to Asp; also called rKAL-K307/308D; source: E. coli BL21 (DE3), purified (HisTrap FF crude, SENP2 digestion, HiTrap SP)
# B4: rKAL-R259D (natural protein, human, UniProt P29622 45-427, looked up)
# chain: B2 chain with R215D
# notes: kallistatin (SERPINA4), human, residues 45-427; source: E. coli BL21 (DE3), purified (HisTrap FF crude, SENP2 digestion, HiTrap SP)
# B5: rKAL-R394D (natural protein, human, UniProt P29622 45-427, looked up)
# chain: B2 chain with R350D
# notes: as for B4
# B6: rKAL-R300D (natural protein, human, UniProt P29622 45-427, looked up)
# chain: B2 chain with R256D
# notes: as for B4
# B7: rKAL-312/313D (natural protein, human, UniProt P29622 45-427, looked up)
# chain: B2 chain with K268D, K269D
# notes: kallistatin (SERPINA4), human, residues 45-427; double mutant of K312 and K313 to Asp; also called rKAL-K312/313D; source: E. coli BL21 (DE3), purified (HisTrap FF crude, SENP2 digestion, HiTrap SP)
# Biological target: B2
# Assay: SDS-stable covalent serpin-protease complex on reducing SDS-PAGE; 2 µg rKAL mixed with 0.5-1 µg KLK1 (2-3 min), 5 µg KLK1-99Lm (20 min) or 0.5 µg KLK1-70Lm (2 min) at room temperature, no heparin; Coomassie stain
# Settings: both partners purified
row,binding result,Binder
1,binds,B1

# Biological target: B1
# Assay: kinetics of protease inhibition (discontinuous assay); pseudo-first-order; 10 nM protease with 100-500 nM kallistatin variant, PBS, 0.1% PEG 8000, 22 ± 1 °C; apparent second-order rate constant kapp from kobs; k2 = kapp × SI
# Settings: both partners purified
"k2 (kapp × SI, second-order rate constant) [M⁻¹ s⁻¹]",kapp (apparent second-order rate constant) [M⁻¹ s⁻¹],Binder
3400,2400,B2
2000,1300,B3
3500,2200,B4
1800,1000,B5
2900,1600,B6
1500,1000,B7

# Biological target: B1
# Assay: stoichiometry of inhibition by titration of residual protease activity; 1 µM protease with increasing kallistatin variant in PBS, 0.1% PEG 8000, 2 h, 37 °C; residual activity on 0.2 mM H-D-Val-Leu-Arg-AMC; intercept on the abscissa
# Settings: both partners purified
row,SI (stoichiometry of inhibition),Binder
1,1.4,B2
2,1.5,B3
3,1.6,B4
4,1.8,B5
5,1.8,B6
6,1.5,B7
